Measurements: publication PMC3154026

Target: TamL, FAD-dependent oxidase (flavoprotein) of the tirandamycin biosynthetic gene cluster (Streptomyces sp. 307-9)
Assay: crystal structure

“TamL, FAD-dependent oxidase (flavoprotein) of the tirandamycin biosynthetic gene cluster (enzyme)” was tested, and the stoichiometry N was 2.
